This is an account of results in paper doi:10.1101/2024.04.22.590578.

For orientation: stoichiometry N means the number of molecules, sites or subunits per partner or assembly.

What all share (assay): crystal structure
The target of assay [1] is SARS-CoV-2 M^pro G15S (SARS-CoV-2).
Assay [2] has as its target SARS-CoV-2 M^pro K90R (SARS-CoV-2).
For assay [3], the target named is SARS-CoV-2 M^pro M49I (SARS-CoV-2).
The target in assay [4] is SARS-CoV-2 M^pro P132H (SARS-CoV-2).
In assay [5] the target is SARS-CoV-2 M^pro S46F (SARS-CoV-2).
Assay [6] deals with SARS-CoV-2 M^pro V186F (SARS-CoV-2).
Assay [7] addresses SARS-CoV-2 M^pro Y54C (SARS-CoV-2).

For SARS-CoV-2 M^pro G15S (enzyme), the stoichiometry N in assay [1] was determined as 2.
Substance SARS-CoV-2 M^pro K90R (enzyme) yielded a stoichiometry N in assay [2] of 2.
As to SARS-CoV-2 M^pro M49I (enzyme), in assay [3], the stoichiometry N was determined as 2.
On to SARS-CoV-2 M^pro P132H (enzyme), for which the stoichiometry N in assay [4] came to 2.
Turning to SARS-CoV-2 M^pro S46F (enzyme), the stoichiometry N in assay [5] was 2.
SARS-CoV-2 M^pro V186F (enzyme): in assay [6], the stoichiometry N was 2.
As to SARS-CoV-2 M^pro Y54C (enzyme), the stoichiometry N in assay [7] is 2.
